# Test results taken from patent US8147817B2, “IL-33 in the treatment and diagnosis of diseases and disorders” (The Brigham and Women's Hospital, Inc., priority 2006, dated 2012).
# Entries after “also recorded” stand apart in the source; their conditions may differ.
# B1: IL-33: recombinant mature rat IL-33, starting with amino acid 109 of the full-length protein, N-terminal His tag (GenBank BC081993) (protein)
# chain: SIQGTSLLTESCALSTYNDQSVSFVLENGCYVINVEDCGKNQEKDKVLLRYYESSFPAQSGDGVDGKKLMVNMSPIKDTDIWLNANDKDYSVELQKGDVSPPDQAFFVLHKKSSDFVSFECKNLPGTYIGVKDNQLALVEENDESCNNIMFKLSKM
# modifications: left off: small tags and cut ends
# Columns and labels:
# NF-κB = NF-κB nuclear binding activity by EMSA in cardiac fibroblasts; format: cell-based, rat; conditions: angiotensin-II 1 μM, phenylephrine 50 μM, IL-33 10 ng/ml
# Method: Electromobility shift assays were performed as described previously (8). Cells were lysed for 10 minutes on ice in a solution containing 10 mM HEPES (pH 7.6), 15 mM KCl, 2 mM MgCl2, 0.1 mM ethylenediamine tetraacetic acid (EDTA), 1 mM dithiothreitol (DTT), 0.5 mM phenylmethylsulphonylfluoride (PMSF), 10 μg/mL leupeptin and 0.2% Nonident P-40. Dishes were gently scraped, and nuclei were collected by centrifugation at 800 g for 30 seconds and then suspended in a solution of 50 mM HEPES, 400 mM KCl, 0.1 mM EDTA, 10% glycerol, 1 mM DTT, 0.5 mM PMSF and 10 μg/mL leupeptin. The mixture was incubated on ice for 30 minutes, and the supernatant was collected after centrifugation for 15 minutes at 400 g. Binding reactions were performed with 5 or 10 μg of nuclear protein in 10 mM Tris, 1 mM DTT, 1 mM EDTA, 5% glycerol, 0.1% Triton X-100, 1 mg poly(dIdC), 5 μg bovine serum albumin (BSA) and approximately 10,000 cpm of −32P-labeled oligonucleotide. The binding reactions for AP-1 activity also contained 5 mM MgCl2. Control reaction mixtures contained a 100-fold excess of unlabeled oligonucleotide and were incubated with nuclear extracts of IL-1β-treated cells. DNA complexes were separated on a 4% nondenaturing polyacrylamide gel in Tris-HCl (6.7 mM), EDTA (1 mM) and ammonium acetate (3.3 mM). The oligonucleotides contained the NF-B binding site (sequence: 5′-AGTTGAGGGGACTTTCCCAGGC-3′ (SEQ ID NO: 15)) and were labeled by standard procedures.
# EMSAs were performed as described previously (47). Cells were lysed for 10 minutes on ice in 10 mM HEPES (pH 7.6), 15 mM KCl, 2 mM MgCl2, 0.1 mM EDTA, 1 mM DTT, 0.5 mM PMSF, 10 μg/mL leupeptin, and 0.2% Nonident P-40. Dishes were gently scraped, and nuclei were collected by centrifugation at 800 g for 30 seconds and then suspended in a solution of 50 mM HEPES, 400 mM KCl, 0.1 mM EDTA, 10% glycerol, 1 mM DTT, 0.5 mM PMSF, and 10 μg/mL leupeptin. The mixture was incubated on ice for 30 minutes, and the supernatant was collected after centrifugation for 15 minutes at 400 g. […]
# IκBα = IκBα phosphorylation by Western analysis in cardiac fibroblasts; format: cell-based, rat
# Method: (§1) Western analyses were performed as described previously (45). Membranes were incubated with primary antibodies overnight (anti-p44/42MAPK diluted 1:500; phospho-p44/42MAPK (Thr202/Tyr204) 1:1000; phospho-JNK (Thr183/Tyr185) 1:500; p38MAPK 1:500; phospho-p38MAPK (Thr180/Tyr182) 1:500; phospho-Akt (Ser473) 1:1000 and phospho-IκBα 1:1000, all from Cell Signaling, anti-mouse ST2L, from R&D 1:1000 and anti-IL-33 as described above, 1:500) at 4° C., detected with horseradish peroxidase-conjugated antibodies and enhanced chemiluminescence.
# [1] = test system: rat neonatal cardiomyocytes; test: Cardiomyocyte apoptosis assays (H2O2 stimulus); format: cell-based
# Method: For cardiomyocyte apoptosis assays, cardiomyocytes were plated overnight, cultured serum-free for 24 hours, and then subjected to 0.1 mM H2O2 for another 24 hours with or without treatment with purified rat mature IL-33 protein. TUNEL staining (FIG. 19) was performed using a TUNEL staining kit (Roche Diagnostics Corp., Indianapolis, Ind.). For DNA fragmentation experiments (FIGS. 19 and 20), cells were trypsinized, fixed with ethanol, incubated in RNase, stained with propidium iodide, and then subjected to flow cytometry (Cytomics FC 500; Beckman Coulter).
# Membranes (PVDF, PerkinElmer) were incubated with primary antibodies overnight (anti-cleaved caspase-3, 1:1000; from Cell Signaling Technology) at 4° C., detected with horseradish peroxidase-conjugated antibodies (Bio-Rad) and enhanced chemiluminescence (FIG. 20).
# [2] = test system: WT and ST2KO mice after MI; test: Experimental myocardial infarction with IL-33 treatment; format: in vivo, mouse; conditions: recombinant rat IL-33 intraperitoneal daily up to 4 weeks
# Text: 86 mice with wild-type (WT) or ST2 knockout (ST2KO) genotypes were randomized into 4 subgroups, Sham or MI operated, and with or without IL-33 treatment. Experimental myocardial infraction operation was done by permanent occlusion of the left anterior coronary artery via open-chest approach under deep anesthesia. IL-33 treatment was done by a single 2 microgram/kg on each day, intraperitoneal, of recombinant rat IL-33 protein, from the day of operation up to 4 weeks.
# MI was produced on 8-10 week old mice.
# MAP kinases and Akt = test: Western analysis for MAP kinases and Akt in cardiomyocytes; format: cell-based, rat
# Method: Phosphorylation of MAP kinases and Akt were detected by Western analysis as previously described (5). Membranes were incubated with primary antibodies overnight (phospho ERK1/2 diluted 1:1000; phospho SAPK/JNK diluted 1:500; phospho p38 MAPK diluted 1:500; phospho Akt (Ser473) diluted 1:1000). All antibodies were from Cell Signaling Technology, Inc. (Danvers, Mass.) and were sequentially detected with horseradish peroxidase-conjugated goat anti-rabbit IgG and enhanced chemiluminescence.
# as §1
molecule,measurement,setting,value
B1,NF-κB activation by agent alone,NF-κB,independently activated NF-κB in both cell types
same,IκBα phosphorylation by agent alone,IκBα,induced IκBα phosphorylation in both cell types
same,"apoptosis (TUNEL staining, flow cytometry and caspase-3 evaluation together)",[1],can prevent apoptosis in cardiac myocytes
same,apoptosis by TUNEL staining,[1],can prevent apoptosis in cardiac myocytes; also recorded: can reduce apoptosis in cardiac myocytes
same,apoptosis by caspase-3 activation,[1],can prevent apoptosis in cardiac myocytes
same,apoptosis by flow cytometry after propidium iodide staining,[1],can prevent apoptosis in cardiac myocytes
same,survival after infarction,[2]; ST2KO mice,eliminates this benefit
same,survival after infarction,[2]; WT mice,improves survival after infarction
same,"phosphorylation of ERK, p38 and JNK MAP kinases",MAP kinases and Akt; IL-33 (10 ng/ml) alone,"increased phosphorylation of ERK, p38 and JNK MAP kinases; also recorded: generally modest compared with IL-1β; also recorded: activated all MAP kinases"
same,Akt activation,MAP kinases and Akt; IL-33 alone,minimally activated Akt
same,angiotensin-II-induced Akt activation,MAP kinases and Akt; co-treatment with IL-33,did not impair angiotensin-II-induced Akt activation
same,angiotensin-II-induced ERK phosphorylation,MAP kinases and Akt; co-treatment with IL-33,did not affect ERK phosphorylation
same,angiotensin-II-induced JNK phosphorylation,MAP kinases and Akt; co-treatment with IL-33,decreased
same,angiotensin-II-induced p38MAPK phosphorylation,MAP kinases and Akt; co-treatment with IL-33,decreased
